Experimental data reported in paper PMC1762332, “Catalases Are NAD(P)H-Dependent Tellurite Reductases” (PLoS ONE, 2006).

Substrate: O=[Te](O)O
Test: purified protein
Details: NADPH 10 mM (50 µl of 0.2 M in 1 ml), Tris-HCl pH 8.0 (50 mM), aerobic

B1: bovine liver catalase (Bos taurus) (protein)
chain: ADNRDPASDQMKHWKEQRAAQKPDVLTTGGGNPVGDKLNSLTVGPRGPLLVQDVVFTDEMAHFDRERIPERVVHAKGAGAFGYFEVTHDITRYSKAKVFEHIGKRTPIAVRFSTVAGESGSADTVRDPRGFAVKFYTEDGNWDLVGNNTPIFFIRDALLFPSFIHSQKRNPQTHLKDPDMVWDFWSLRPESLHQVSFLFSDRGIPDGHRHMNGYGSHTFKLVNANGEAVYCKFHYKTDQGIKNLSVEDAARLAHEDPDYGLRDLFNAIATGNYPSWTLYIQVMTFSEAEIFPFNPFDLTKVWPHGDYPLIPVGKLVLNRNPVNYFAEVEQLAFDPSNMPPGIEPSPDKMLQGRLFAYPDTHRHRLGPNYLQIPVNCPYRARVANYQRDGPMCMMDNQGGAPNYYPNSFSAPEHQPSALEHRTHFSGDVQRFNSANDDNVTQVRTFYLKVLNEEQRKRLCENIAGHLKDAQLFIQKKAVKNFSDVHPEYGSRIQALLDKYNEEKPKNAVHTYVQHGSHLSAREKANL
  Km: 900 µM
